Assay results taken from patent US20020164744A1, “Soluble, active recombinant human MAO-B” (priority 1999, published 2002).
Read-outs that look alike come from different tables or passages of the source. Values belong to the molecule of their own block, whether it stands above or below them.

Assays:
recombinant human MAO-B [1] = biological target: T1, recombinant human MAO-B (Homo sapiens, UniProt P27338); experiment: MAO-B activity assay (reaction velocity, specific activity, Km) with 1-methyl-4-(1-methyl-2-pyrryl)-1,2,3,6-tetrahydropyridine as substrate; type: biochemical
T1 construct: DNA coding for the full length and truncated C-terminal HIS tagged MAO-B proteins, as described above; made in house; host or cells: Saccharomyces cerevisiae INVSc1
T1 sequence (P27338 1-520): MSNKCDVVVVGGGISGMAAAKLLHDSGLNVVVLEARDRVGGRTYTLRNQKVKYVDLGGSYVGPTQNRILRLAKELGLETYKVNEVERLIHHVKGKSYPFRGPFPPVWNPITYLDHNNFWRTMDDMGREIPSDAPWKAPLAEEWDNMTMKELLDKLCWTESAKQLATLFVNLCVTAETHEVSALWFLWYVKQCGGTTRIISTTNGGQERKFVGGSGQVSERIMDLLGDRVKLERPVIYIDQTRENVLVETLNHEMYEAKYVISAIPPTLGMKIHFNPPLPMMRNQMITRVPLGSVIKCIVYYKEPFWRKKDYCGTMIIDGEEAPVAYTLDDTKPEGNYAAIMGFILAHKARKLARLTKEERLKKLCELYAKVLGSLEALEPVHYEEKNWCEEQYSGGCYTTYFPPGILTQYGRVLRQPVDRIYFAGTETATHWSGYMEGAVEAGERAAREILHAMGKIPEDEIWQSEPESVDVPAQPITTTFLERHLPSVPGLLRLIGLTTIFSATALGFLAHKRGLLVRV
Procedure: (§1) The MAO-B containing solutions, including fractions isolated from chromatography columns, were assayed to measure reaction velocity. The assays were carried out in a final volume of 200 μl in 50 mM sodium phosphate, 10 mM NaCl, pH 7.5, with 0.2 mM substrate (1-methyl-4-(1-methyl-2-pyrryl)-1,2,3,6-tetrahydropyridine) as described in Flaherty, et al., J. Med. Chem., 39:4756-4761 (1996) hereby incorporated by reference. Reaction velocity was followed at an absorbence of 420 nm at 37° C. in a SpectraMax 250 96-well plate reader. Specific activity measurements were made using a Shimadzu UV-2101PC spectrophotometer equipped with a Shimadzu temperature controller (TCC-controller) set to 37° C. Protein concentrations were determined using the Bio-Rad Protein Assay kit (Bio-Rad Laboratories, Hercules, Calif.).
(§2) Analysis of samples containing purified wild-typeMAO-B was carried out using 1-methyl-4-(1-methyl-2-pyrryl)-1,2,3,6-tetrahydropyridine as the substrate. The effect of protein concentration on activity was measured. […] The plot of MAO-B concentration vs. activity was a straight line. Variation of the substrate at a constant enzyme concentration was used to determine the Km for the substrate. […] Again, the reaction progress at each concentration of substrate was followed as straight lines with coefficients of correlation greater than 0.99.
(§3) The activity of samples containing the purified mutant MAO-B described in Example 1 above was also analyzed using 1-methyl-4-(1-methyl-2-pyrryl)-1,2,3,6-tetrahydropyridine as the substrate. Activity was highest for wild-type MAO-B followed by the MAO-B mutant Met1-Leu498 which had approximately 10% of wild-type activity. The two remaining C-terminal deletion mutants, Met1-Val470 and Met1-Val418, had about the same activities, less than 0.1% of wild-type MAO-B activity. This confirms that deletion or truncation of the C-terminus of human MAO-B causes loss of enzymatic activity.

recombinant human MAO-B [2] = experiment: as above; type: biochemical; conditions: substrate 1-methyl-4-(1-methyl-2-pyrryl)-1,2,3,6-tetrahydropyridine; purified C-terminal deletion mutants
Procedure: as §1, §2, §3

[3] = substrate 1-methyl-4-(1-methyl-2-pyrryl)-1,2,3,6-tetrahydropyridine, 37° C., fraction after purification step
[4] = substrate 1-methyl-4-(1-methyl-2-pyrryl)-1,2,3,6-tetrahydropyridine, fraction after purification step, read-out: Km FOR SUBSTRATE

activity (rank among wild-type and mutants) (recombinant human MAO-B [1]; substrate 1-methyl-4-(1-methyl-2-pyrryl)-1,2,3,6-tetrahydropyridine): highest
B1: wild-type MAO-B: purified full-length recombinant human MAO-B with HIS6 tag expressed in S. cerevisiae (protein, UniProt P27338 1-520, looked up)
chain: T1 sequence (P27338 1-520)
modifications: full-length His6 tag
notes: purified full-length recombinant human MAO-B with HIS6 tag expressed in S. cerevisiae
Km (recombinant human MAO-B [1]; substrate 1-methyl-4-(1-methyl-2-pyrryl)-1,2,3,6-tetrahydropyridine varied at constant enzyme concentration, 37° C., read-out: Km for the substrate (Lineweaver Burke plot)): 71.9 µM

activity relative to wild-type MAO-B activity (recombinant human MAO-B [2]): approximately 10%
B4: Met1-Leu498: C-terminal deletion mutant of human MAO-B-HIS6, residues Met1-Leu498 (protein, UniProt P27338 1-498, looked up, fragment)
chain: MSNKCDVVVVGGGISGMAAAKLLHDSGLNVVVLEARDRVGGRTYTLRNQKVKYVDLGGSYVGPTQNRILRLAKELGLETYKVNEVERLIHHVKGKSYPFRGPFPPVWNPITYLDHNNFWRTMDDMGREIPSDAPWKAPLAEEWDNMTMKELLDKLCWTESAKQLATLFVNLCVTAETHEVSALWFLWYVKQCGGTTRIISTTNGGQERKFVGGSGQVSERIMDLLGDRVKLERPVIYIDQTRENVLVETLNHEMYEAKYVISAIPPTLGMKIHFNPPLPMMRNQMITRVPLGSVIKCIVYYKEPFWRKKDYCGTMIIDGEEAPVAYTLDDTKPEGNYAAIMGFILAHKARKLARLTKEERLKKLCELYAKVLGSLEALEPVHYEEKNWCEEQYSGGCYTTYFPPGILTQYGRVLRQPVDRIYFAGTETATHWSGYMEGAVEAGERAAREILHAMGKIPEDEIWQSEPESVDVPAQPITTTFLERHLPSVPGLLRLIGL
modifications: His6 tag

Second part, the molecule before the results:

B2: Post-Superose 6 chromatography/concentrate: recombinant human MAO-B further resolved on Superose-6 size exclusion column and concentrated (protein, UniProt P27338 2-520, looked up)
Amine oxidase …: SNKCDVVVVGGGISGMAAAKLLHDSGLNVVVLEARDRVGGRTYTLRNQKVKYVDLGGSYVGPTQNRILRLAKELGLETYKVNEVERLIHHVKGKSYPFRGPFPPVWNPITYLDHNNFWRTMDDMGREIPSDAPWKAPLAEEWDNMTMKELLDKLCWTESAKQLATLFVNLCVTAETHEVSALWFLWYVKQCGGTTRIISTTNGGQERKFVGGSGQVSERIMDLLGDRVKLERPVIYIDQTRENVLVETLNHEMYEAKYVISAIPPTLGMKIHFNPPLPMMRNQMITRVPLGSVIKCIVYYKEPFWRKKDYCGTMIIDGEEAPVAYTLDDTKPEGNYAAIMGFILAHKARKLARLTKEERLKKLCELYAKVLGSLEALEPVHYEEKNWCEEQYSGGCYTTYFPPGILTQYGRVLRQPVDRIYFAGTETATHWSGYMEGAVEAGERAAREILHAMGKIPEDEIWQSEPESVDVPAQPITTTFLERHLPSVPGLLRLIGLTTIFSATALGFLAHKRGLLVRV
SPECIFIC ACTIVITY (recombinant human MAO-B [1]; [3]): 80.6 nmol/min/mg | Km (recombinant human MAO-B [1]; [4]): 55.4 µM

B3: IMAC eluted/concentrate: HIS-tagged recombinant human MAO-B from yeast extract, eluted from Ni-NTA IMAC column and concentrated (protein, UniProt P27338 2-520, looked up)
Amine oxidase …: B2 Amine oxidase …
modifications: His tag
notes: HIS-tagged recombinant human MAO-B from yeast extract, eluted from Ni-NTA IMAC column and concentrated
SPECIFIC ACTIVITY (recombinant human MAO-B [1]; [3]): 8.7 nmol/min/mg | Km (recombinant human MAO-B [1]; [4]): 71.9 µM
